Experimental data reported in publication PMC5981469.

Molecular target: envelope protein domain III from dengue virus serotype 2 (DENV2 DIII) (dengue virus serotype 2)
Test: ITC

Substance	Kd [nM]	other [kcal/mol]	stoichiometry N [sites]
scFv4E11 bearing the AlaH55Glu mutation	12.8	-1.89	1.04
scFv513 bearing the single mutation GluH55Ala	28.7	-1.78	0.99
single-chain variable fragment of humanized monoclonal antibody 513 (scFv513), wild type	1.64	-4.28	1.01
single-chain variable fragment of murine monoclonal antibody 4E11 (scFv4E11), wild type	30.7	-2.09	0.96
